Consider two substances from patent publication US20250026836A1.

Test [1] has as its target HLA-G4 isoform expressed on Expi293F cells (human) (UniProt P17693). Put plainly: flow cytometry on Expi293F cells transfected with HLA-G4, negative control staining. In general terms: Flow cytometry measures light scatter and fluorescence of single cells or particles in a stream.
Test [2] deals with HLA-G2 isoform expressed on Expi293F cells (human) (UniProt P17693). Put plainly: flow cytometry on Expi293F cells transfected with HLA-G2, negative control staining.
The target is the same in test [3]. Put plainly: flow cytometry on Expi293F cells transfected with HLA-G2, negative control staining; same profile as the HLA-G2 row of FIG. 5A, drawn larger.
Test [4] concerns the target HLA-G1 isoform expressed on Expi293F cells (human) (UniProt P17693). Put plainly: flow cytometry on Expi293F cells transfected with HLA-G1, negative control staining.
The target in test [5] is HLA-G4 isoform expressed on Expi293F cells (human) (UniProt P17693). Put plainly: flow cytometry on Expi293F cells transfected with HLA-G4, antibody 10 µg/ml.
Test [6] deals with HLA-G2 isoform expressed on Expi293F cells (human) (UniProt P17693). Put plainly: flow cytometry on Expi293F cells transfected with HLA-G2, antibody 10 µg/ml.
Test [7] concerns the target HLA-G1 isoform expressed on Expi293F cells (human) (UniProt P17693). Put plainly: flow cytometry on Expi293F cells transfected with HLA-G1, antibody 10 µg/ml.
Test [8] concerns the target HLA-G3 isoform expressed on Expi293F cells (human) (UniProt P17693). Put plainly: flow cytometry on Expi293F cells transfected with HLA-G3, antibody 10 µg/ml.

In the case of 2nd Ab (neg CTRL) (antibody), the % (positive cells) in test [1] worked out at 2%; in test [2] it was 1%; in test [3] it was 1%; in test [4] it was 1%.
Consider “commercial Mouse anti-HLA-G antibody 4H84 (Abcam, Mouse IgG1)”, for which the % of the cells stained in test [5] was determined as 16%; in test [6] it was 34%; in test [7], 81%; in test [8], 67%.
